{"source": "paper PMC12764052", "target": "Pyruvate kinase M2 isoform (human (endogenous in AGS and HGC27)) (UniProt P14618)", "test": "cross-linking"}
{"substance": "Pyruvate kinase M2 isoform, P14618 1-531 (natural protein; other documents disagree on this pair)", "values": [{"measurement": "stoichiometry N", "value": 2}]}
